Test results published in patent US20230355813A1, “Theranostic Silicon-Fluoride Heteroaromatic Systems and Methods Thereof” (Fuzionaire Diagnostics, Inc., priority 2022, published 2023).

What was measured:
[1] = pH 10
Description: Brief descriptions of each property and the characterization of each property are stated below. • a) Hydrophilicity. Hydrophilicity relates to the strength of being dissolved in or absorbed in aqueous solutions. It denotes a preference for liquids, solutions, or surfaces with a high dipole moment, like water. Lipophilicity denotes a preference for liquids, solutions, or surfaces with a low dipole moment, such as lipid solutions. The more polar the HetSiFA, the less masking of the lipophilicity may be needed in the radiopharmaceutical via introducing cumbersome and lengthy linkers. The hydrophilicity of HetSiFAs is assessed by calculating and/or measuring the octanol/water partition coefficient log P. Log D measures the lipophilicity of ionizable compounds, where the partition is a function of the pH. The reversed-phase HPLC retention times tR can be used to qualitatively compare the polarity of HetSiFAs. • b) Hydrolytic stability. […] At different time points, the substrate is quantified by HPLC UV monitoring. […] The hydrolysis is monitored by HPLC (˜7 timepoints). […] In addition, the stability of compounds can be assessed in rat and human plasma and in microsomes. • c) Radiolabeling. […] The radiolabeling properties of synthesized HetSiFAs can be assessed using low amounts of radioactivity. […]

[2] = stability in solution / on storage (observations); format: physicochemical; conditions: prolonged storage
[3] = ex vivo biodistribution in healthy mice; conditions: for bone uptake: ex vivo biodistribution, 3 healthy Balb/c female mice, indicates Si-18F bond stability in vivo
FIG. 26 = test: FIG. 26
Description: Table printed on a drawing sheet, FIG. 26
The patent's description of the figure: FIG. 26 illustrates HSA binding assay results of HetSiFA compounds in accordance with an embodiment of the invention.
FIG. 26 illustrates human serum albumin (HSA) binding assay results of HetSiFA compounds in accordance with an embodiment. A standard curve can be first established using reference compounds (See, e.g., Valko, K. et al., J. Pharm. Sci. 2003, 92 (11), 2236-2248; Wurzer, A. J. et al., PSMA binding dual mode radiotracer and therapeutic. 2020, WO2020157177A1; the disclosures of which are herein incorporated by reference.) The HSA binding assay results include four HetSiFA theranostic compounds, FTX-164, FTX-165, FTX-168, and FTX-181 (structures shown in FIG. 26), and two therapeutics Lutathera and Lu-NeoB. […] Test condition of the HSA binding assay includes: Column: Chiralpak HSA (100×2.1 mm, 5 μm, Cat. No. HSA5LM-C0004), flow rate: 0.3 mL/min. Mobile phase: A—NH40Ac buffer (50 mM, pH=7), freshly prepared each day; B—isopropanol (HPLC grade); 0-3 min: isocratic 100% A, 0% B; 3-40 min: gradient to 80% A, 20% B; 40-60 min: isocratic 80% A, 20% B. Samples: 9 reference compounds, concentration 0.5 mg/mL in i-PrOH/NH4OAc (50 mM) pH=7, 50:50. […]
First reader's note: HSA % is human serum albumin binding; the structures of the compounds are drawn beside the table on the same sheet.

Row | Compound | hydrolytic stability compared to phenyl-SiFA [1] | bone uptake [3] | further results
1 | COc1ccncc1[Si](F)(C(C)(C)C)C(C)(C)C [3-(Di-tert-butylfluorosilyl)-4-methoxypyridine] | slightly lower hydrolytic stability than phenyl-SiFA |  | 
2 | COc1ncccc1[Si](F)(C(C)(C)C)C(C)(C)C [5-(Di-tert-butylfluorosilyl)-6-methoxypyridine] | higher hydrolytic stability than phenyl-SiFA |  | 
3 | CC(C)(C)OC(=O)NCCOCCn1nc(NCC(=O)O)cc1[Si](F)(C(C)(C)C)C(C)(C)C [PPI-24068, (1-(2-(2-((tert-butoxycarbonyl)amino)ethoxy)ethyl)-5-(di-tert-butylfluorosilyl)-1H-pyrazol-3-yl)glycine] |  |  | stability on storage and in basic medium [2]: some instability
4 | Lu-DOTAGA-^18F-Pyrazole-HetSiFA-PEG12-TATE [^18F-FTX-181] |  | less bone uptake | accumulation in the liver ([3]; healthy Balb/c female mice): low; washout from non-targeted organs ([3]; healthy Balb/c female mice): washes out from non-targeted organs except for the gallbladder
5 | ^18F-Pyrazole-HetSiFA-Lu-DOTAGA-TATE [^18F-FTX-165] |  | Little bone uptake | 
6 | ^18F-Pyridine-HetSiFA-Lu-DOTAGA-TATE [FTX-164] |  |  | HSA % (FIG. 26): 97.78%
